Data reported in patent US20200024322A1 (Eli Lilly, published 2020).
Where a chain is given by its changes, count along the chain named. Numbered stars: 1 amine (or outer) side, 2 acyl side, 3 side chain; on linkers, the order of the positions; unused ones are H or OH. Square brackets hold non-standard residues; d marks the D form. Side chains are listed from the residue outwards. Ends that are not written are not given here. * marks the point of attachment. C20 diacid = O=C(O)CCCCCCCCCCCCCCCCCCC(=O)*; C18 diacid = O=C(O)CCCCCCCCCCCCCCCCC(=O)*; γGlu = O=C(O)[C@H](CCC(=O)[*:2])N[*:1]; AEEA = NCCOCCOCC(=O)O; Aib = CC(C)(N)C(=O)O

T1: human GIP receptor (human, UniProt P48546 22-466)
T1 construct: whole, on cells; also called hGIPR; hGIP-R
T1 sequence (looked up): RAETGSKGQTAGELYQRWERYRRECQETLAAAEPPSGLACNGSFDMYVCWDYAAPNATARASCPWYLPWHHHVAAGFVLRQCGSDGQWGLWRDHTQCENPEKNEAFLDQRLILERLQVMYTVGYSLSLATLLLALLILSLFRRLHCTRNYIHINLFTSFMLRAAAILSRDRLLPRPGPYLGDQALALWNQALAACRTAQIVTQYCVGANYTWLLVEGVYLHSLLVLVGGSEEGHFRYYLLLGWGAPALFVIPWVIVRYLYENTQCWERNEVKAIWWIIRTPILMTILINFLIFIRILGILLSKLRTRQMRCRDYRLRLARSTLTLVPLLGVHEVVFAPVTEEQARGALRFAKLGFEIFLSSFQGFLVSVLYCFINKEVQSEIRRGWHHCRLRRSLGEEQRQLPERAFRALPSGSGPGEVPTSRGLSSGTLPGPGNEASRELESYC

B1: Example 265 (peptide)
peptide: YXEGTXTSDXSIXLDXKAQXEFIXXLIEGG
modifications: Aib2; αMeF(2F)6; 4Pal10; αMeL13; Orn16; K17((2-[2-(2-Amino-ethoxy)-ethoxy]-acetyl)2-(γ-Glu)-CO-(CH2)16-CO2H); Aib20; D-Glu24; αMeY25; C-terminal NH2
B2: Example 266 (peptide)
peptide: Y[Aib]EGTFTSDYSILLDKK([AEEA-AEEA-γGlu-C18 diacid])AQ[Aib]AFIEYLIEGGPSSG-NH2
modifications: N-terminus assumed
SMILES: CC[C@H](C)[C@H](NC(=O)[C@H](CC(C)C)NC(=O)[C@H](Cc1ccc(O)cc1)NC(=O)[C@H](CCC(=O)O)NC(=O)[C@@H](NC(=O)[C@H](Cc1ccccc1)NC(=O)[C@H](C)NC(=O)C(C)(C)NC(=O)[C@H](CCC(N)=O)NC(=O)[C@H](C)NC(=O)[C@H](CCCCNC(=O)COCCOCCNC(=O)COCCOCCNC(=O)CC[C@H](NC(=O)CCCCCCCCCCCCCCCCC(=O)O)C(=O)O)NC(=O)[C@H](CCCCN)NC(=O)[C@H](CC(=O)O)NC(=O)[C@H](CC(C)C)NC(=O)[C@H](CC(C)C)NC(=O)[C@@H](NC(=O)[C@H](CO)NC(=O)[C@H](Cc1ccc(O)cc1)NC(=O)[C@H](CC(=O)O)NC(=O)[C@H](CO)NC(=O)[C@@H](NC(=O)[C@H](Cc1ccccc1)NC(=O)[C@@H](NC(=O)CNC(=O)[C@H](CCC(=O)O)NC(=O)C(C)(C)NC(=O)[C@@H](N)Cc1ccc(O)cc1)[C@@H](C)O)[C@@H](C)O)[C@@H](C)CC)[C@@H](C)CC)C(=O)N[C@@H](CCC(=O)O)C(=O)NCC(=O)NCC(=O)N1CCC[C@H]1C(=O)N[C@@H](CO)C(=O)N[C@@H](CO)C(=O)NCC(N)=O
B3: Example 272 (peptide)
peptide: Y[Aib]EGTFTSDYSILLDKK([AEEA-AEEA-γGlu-C18 diacid])AQ[Aib]AFIEYLIAGGPSSG-NH2
modifications: N-terminus assumed
SMILES: CC[C@H](C)[C@H](NC(=O)[C@H](CC(C)C)NC(=O)[C@H](Cc1ccc(O)cc1)NC(=O)[C@H](CCC(=O)O)NC(=O)[C@@H](NC(=O)[C@H](Cc1ccccc1)NC(=O)[C@H](C)NC(=O)C(C)(C)NC(=O)[C@H](CCC(N)=O)NC(=O)[C@H](C)NC(=O)[C@H](CCCCNC(=O)COCCOCCNC(=O)COCCOCCNC(=O)CC[C@H](NC(=O)CCCCCCCCCCCCCCCCC(=O)O)C(=O)O)NC(=O)[C@H](CCCCN)NC(=O)[C@H](CC(=O)O)NC(=O)[C@H](CC(C)C)NC(=O)[C@H](CC(C)C)NC(=O)[C@@H](NC(=O)[C@H](CO)NC(=O)[C@H](Cc1ccc(O)cc1)NC(=O)[C@H](CC(=O)O)NC(=O)[C@H](CO)NC(=O)[C@@H](NC(=O)[C@H](Cc1ccccc1)NC(=O)[C@@H](NC(=O)CNC(=O)[C@H](CCC(=O)O)NC(=O)C(C)(C)NC(=O)[C@@H](N)Cc1ccc(O)cc1)[C@@H](C)O)[C@@H](C)O)[C@@H](C)CC)[C@@H](C)CC)C(=O)N[C@@H](C)C(=O)NCC(=O)NCC(=O)N1CCC[C@H]1C(=O)N[C@@H](CO)C(=O)N[C@@H](CO)C(=O)NCC(N)=O
B4: Example 317 (peptide)
peptide: Y[Aib]EGTFTSDYSILLDKK([AEEA-AEEA-γGlu-C20 diacid])AQ[Aib]AFIEYLIAGGPSSG-NH2
modifications: N-terminus assumed
SMILES: CC[C@H](C)[C@H](NC(=O)[C@H](CC(C)C)NC(=O)[C@H](Cc1ccc(O)cc1)NC(=O)[C@H](CCC(=O)O)NC(=O)[C@@H](NC(=O)[C@H](Cc1ccccc1)NC(=O)[C@H](C)NC(=O)C(C)(C)NC(=O)[C@H](CCC(N)=O)NC(=O)[C@H](C)NC(=O)[C@H](CCCCNC(=O)COCCOCCNC(=O)COCCOCCNC(=O)CC[C@H](NC(=O)CCCCCCCCCCCCCCCCCCC(=O)O)C(=O)O)NC(=O)[C@H](CCCCN)NC(=O)[C@H](CC(=O)O)NC(=O)[C@H](CC(C)C)NC(=O)[C@H](CC(C)C)NC(=O)[C@@H](NC(=O)[C@H](CO)NC(=O)[C@H](Cc1ccc(O)cc1)NC(=O)[C@H](CC(=O)O)NC(=O)[C@H](CO)NC(=O)[C@@H](NC(=O)[C@H](Cc1ccccc1)NC(=O)[C@@H](NC(=O)CNC(=O)[C@H](CCC(=O)O)NC(=O)C(C)(C)NC(=O)[C@@H](N)Cc1ccc(O)cc1)[C@@H](C)O)[C@@H](C)O)[C@@H](C)CC)[C@@H](C)CC)C(=O)N[C@@H](C)C(=O)NCC(=O)NCC(=O)N1CCC[C@H]1C(=O)N[C@@H](CO)C(=O)N[C@@H](CO)C(=O)NCC(N)=O
B5: Example 318 (peptide)
peptide: Y[Aib]EGTFTSDYSILLDKK([AEEA-AEEA-γGlu-C20 diacid])AQ[Aib]EFIEYLIAGGPSSG-NH2
modifications: N-terminus assumed
SMILES: CC[C@H](C)[C@H](NC(=O)[C@H](CC(C)C)NC(=O)[C@H](Cc1ccc(O)cc1)NC(=O)[C@H](CCC(=O)O)NC(=O)[C@@H](NC(=O)[C@H](Cc1ccccc1)NC(=O)[C@H](CCC(=O)O)NC(=O)C(C)(C)NC(=O)[C@H](CCC(N)=O)NC(=O)[C@H](C)NC(=O)[C@H](CCCCNC(=O)COCCOCCNC(=O)COCCOCCNC(=O)CC[C@H](NC(=O)CCCCCCCCCCCCCCCCCCC(=O)O)C(=O)O)NC(=O)[C@H](CCCCN)NC(=O)[C@H](CC(=O)O)NC(=O)[C@H](CC(C)C)NC(=O)[C@H](CC(C)C)NC(=O)[C@@H](NC(=O)[C@H](CO)NC(=O)[C@H](Cc1ccc(O)cc1)NC(=O)[C@H](CC(=O)O)NC(=O)[C@H](CO)NC(=O)[C@@H](NC(=O)[C@H](Cc1ccccc1)NC(=O)[C@@H](NC(=O)CNC(=O)[C@H](CCC(=O)O)NC(=O)C(C)(C)NC(=O)[C@@H](N)Cc1ccc(O)cc1)[C@@H](C)O)[C@@H](C)O)[C@@H](C)CC)[C@@H](C)CC)C(=O)N[C@@H](C)C(=O)NCC(=O)NCC(=O)N1CCC[C@H]1C(=O)N[C@@H](CO)C(=O)N[C@@H](CO)C(=O)NCC(N)=O
B6: Example 264 (peptide)
peptide: YXEGTXTSDXSIXLDXKAQXEFIXXLIEGGPSSG
modifications: Aib2; αMeF(2F)6; 4Pal10; αMeL13; Orn16; K17((2-[2-(2-Amino-ethoxy)-ethoxy]-acetyl)2-(γ-Glu)-CO-(CH2)16-CO2H); Aib20; D-Glu24; αMeY25; C-terminal NH2
B7: Example 250 (peptide)
peptide: YXEGTXTSDYSIXLDXKAQXEFIXYLIEGGPSSGAPPPS
modifications: Aib2; αMeF(2F)6; Aib13; Orn16; K17((2-[2-(2-Amino-ethoxy)-ethoxy]-acetyl)2-(γ-Glu)-CO-(CH2)18-CO2H); Aib20; D-Glu24; C-terminal NH2
B8: Example 251 (peptide)
peptide: B7 peptide with Y10X, E21A, Y25X
modifications: Aib2; αMeF(2F)6; 4Pal10; αMeL13; Orn16; K17((2-[2-(2-Amino-ethoxy)-ethoxy]-acetyl)2-(εK)-CO-(CH2)18-CO2H); Aib20; D-Glu24; αMeY25; C-terminal NH2
B9: Example 254 (peptide)
peptide: YXEGTFTSDYSILLDKKAQQAFIEYLIEGGPSSGAPPPS
modifications: Aib2; K17((2-[2-(2-Amino-ethoxy)-ethoxy]-acetyl)2-(γ-Glu)-CO-(CH2)18-CO2H); C-terminal NH2
B10: Example 255 (peptide)
peptide: B9 peptide with Q20H
modifications: Aib2; K17((2-[2-(2-Amino-ethoxy)-ethoxy]-acetyl)2-(γ-Glu)-CO-(CH2)18-CO2H); C-terminal NH2

How the values were obtained:
human GIP receptor = target: T1, human GIP receptor; test: [125I]-GIP competition SPA, hGIPR membranes
human glucagon receptor = target: T2, human glucagon receptor (human, UniProt P47871 26-477); test: [125I]-Gcg competition SPA, hGcgR membranes
T2 construct: whole, on cells; also called hGcgR; GcgR

human GLP-1 receptor = target: T3, human GLP-1 receptor (human, UniProt P43220 24-463); test: [125I]-GLP-1 competition SPA, hGLP-1R membranes
T3 construct: whole, on cells; also called hGLP-1R; hGLP1R
How it was run: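 Competition binding in 25 mM HEPES pH 7.4, 2.5 mM CaCl₂, 1 mM MgCl₂, 0.1% bacitracin, 0.003% TWEEN-20, EDTA-free protease inhibitors. IC₅₀ from four-parameter nonlinear fit; Kᵢ given as geometric mean ± SEM, n = independent replicates on different days.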

T2 sequence (P47871 26-477): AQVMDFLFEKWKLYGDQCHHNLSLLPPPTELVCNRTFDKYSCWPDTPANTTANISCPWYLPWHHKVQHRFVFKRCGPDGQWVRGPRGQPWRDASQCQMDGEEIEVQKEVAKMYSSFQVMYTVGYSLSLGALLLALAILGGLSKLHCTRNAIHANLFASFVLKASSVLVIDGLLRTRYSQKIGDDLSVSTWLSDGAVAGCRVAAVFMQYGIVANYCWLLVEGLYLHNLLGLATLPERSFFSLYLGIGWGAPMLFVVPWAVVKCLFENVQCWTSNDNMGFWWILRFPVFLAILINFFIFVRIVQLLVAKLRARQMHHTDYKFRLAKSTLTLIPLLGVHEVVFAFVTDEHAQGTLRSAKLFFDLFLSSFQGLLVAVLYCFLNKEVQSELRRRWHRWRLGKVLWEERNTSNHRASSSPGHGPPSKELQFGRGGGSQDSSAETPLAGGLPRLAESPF

Binder	Ki (human GIP receptor) [nM]	Ki (human glucagon receptor) [nM]	Ki (human GLP-1 receptor) [nM]
B1	0.0224	567	0.537
B2	0.0666	193	2.01
B3	0.0353	550	1.22
B4	0.0215	253	2.63
B5	0.0452	730	7.52
B6	0.015	388	0.412
B7	0.0171	198	1.72
B8	0.0249	21.2	1.09
B9	0.108	148	2.58
B10	0.0772	257	2.58
